# Target: human LIFR expressed on the surface of 293T cells (human) (UniProt P42702)
# Experiment: flow cytometry on HEK293T-huLIFR cells, median fluorescence, span of the fitted curve
# Sequence of human LIFR expressed on the surface of 293T cells (human) (P42702 45-1097): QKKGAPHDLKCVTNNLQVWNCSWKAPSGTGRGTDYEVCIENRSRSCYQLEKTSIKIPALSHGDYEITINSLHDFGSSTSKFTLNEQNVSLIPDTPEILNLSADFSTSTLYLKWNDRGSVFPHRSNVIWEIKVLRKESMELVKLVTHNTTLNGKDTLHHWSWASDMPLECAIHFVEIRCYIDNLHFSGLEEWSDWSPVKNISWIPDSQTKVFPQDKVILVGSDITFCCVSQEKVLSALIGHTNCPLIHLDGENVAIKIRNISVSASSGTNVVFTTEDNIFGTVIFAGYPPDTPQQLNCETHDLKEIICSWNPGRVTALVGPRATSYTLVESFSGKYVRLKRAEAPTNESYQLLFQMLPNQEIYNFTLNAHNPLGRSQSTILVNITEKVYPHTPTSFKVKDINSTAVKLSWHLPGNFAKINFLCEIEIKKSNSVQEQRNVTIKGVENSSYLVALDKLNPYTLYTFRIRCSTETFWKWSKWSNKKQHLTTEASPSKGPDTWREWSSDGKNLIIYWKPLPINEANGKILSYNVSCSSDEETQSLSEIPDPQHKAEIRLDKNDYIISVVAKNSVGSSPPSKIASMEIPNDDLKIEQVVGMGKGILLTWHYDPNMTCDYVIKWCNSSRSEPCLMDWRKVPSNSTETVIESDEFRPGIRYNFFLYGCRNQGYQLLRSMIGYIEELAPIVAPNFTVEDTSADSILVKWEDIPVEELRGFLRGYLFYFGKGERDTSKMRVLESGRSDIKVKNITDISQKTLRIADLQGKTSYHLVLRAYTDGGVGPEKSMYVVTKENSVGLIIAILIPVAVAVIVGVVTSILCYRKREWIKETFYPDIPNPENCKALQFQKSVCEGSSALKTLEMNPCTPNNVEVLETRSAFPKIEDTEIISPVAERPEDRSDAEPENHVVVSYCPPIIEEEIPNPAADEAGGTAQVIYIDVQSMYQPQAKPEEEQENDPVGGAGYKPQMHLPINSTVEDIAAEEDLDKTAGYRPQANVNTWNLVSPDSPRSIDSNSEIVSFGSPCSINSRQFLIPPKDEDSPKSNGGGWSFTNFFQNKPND
binder,measurement,value
"PR301127 (antibody, human IgG1, kappa, V domains shown) VH: EVQLLQSGGGLVQPGGSLRLSCAASGFTFSNYAMTWVRQAPGKGLEWVSTISGSGAFTYYADAVKGRFTISRVNSKNSLDLQMNSLRAEDTAVYYCAKGGILTGFDNWGQGTLVTVSS VL: DIQMTQSPSTLSASVGDRVTITCRASQSISSWLAWYQQKPGKAPKLLIYKASSLESGVPSRFSGSGSGTEFSFTISSLQPDDFATYYCQQYKSFSPGGLTFGGGTKVEIKR",Span,237

# — patent US20250136702A1, “HUMAN LIFR ANTIGEN BINDING PROTEIN, PREPARATION METHOD THEREFOR, AND APPLICATION THEREOF” (NONA BIOSCIENCES (SUZHOU) CO., LTD., priority 2020, published 2025)
